In this assay the target is human ERG potassium channel (human) (UniProt Q12809).

Data on one molecule can be found in paper PMC11748958.

A value given as a limit tells only on which side of the number the result lay.

Sequence of UniProt Q12809 (Q12809 whole entry): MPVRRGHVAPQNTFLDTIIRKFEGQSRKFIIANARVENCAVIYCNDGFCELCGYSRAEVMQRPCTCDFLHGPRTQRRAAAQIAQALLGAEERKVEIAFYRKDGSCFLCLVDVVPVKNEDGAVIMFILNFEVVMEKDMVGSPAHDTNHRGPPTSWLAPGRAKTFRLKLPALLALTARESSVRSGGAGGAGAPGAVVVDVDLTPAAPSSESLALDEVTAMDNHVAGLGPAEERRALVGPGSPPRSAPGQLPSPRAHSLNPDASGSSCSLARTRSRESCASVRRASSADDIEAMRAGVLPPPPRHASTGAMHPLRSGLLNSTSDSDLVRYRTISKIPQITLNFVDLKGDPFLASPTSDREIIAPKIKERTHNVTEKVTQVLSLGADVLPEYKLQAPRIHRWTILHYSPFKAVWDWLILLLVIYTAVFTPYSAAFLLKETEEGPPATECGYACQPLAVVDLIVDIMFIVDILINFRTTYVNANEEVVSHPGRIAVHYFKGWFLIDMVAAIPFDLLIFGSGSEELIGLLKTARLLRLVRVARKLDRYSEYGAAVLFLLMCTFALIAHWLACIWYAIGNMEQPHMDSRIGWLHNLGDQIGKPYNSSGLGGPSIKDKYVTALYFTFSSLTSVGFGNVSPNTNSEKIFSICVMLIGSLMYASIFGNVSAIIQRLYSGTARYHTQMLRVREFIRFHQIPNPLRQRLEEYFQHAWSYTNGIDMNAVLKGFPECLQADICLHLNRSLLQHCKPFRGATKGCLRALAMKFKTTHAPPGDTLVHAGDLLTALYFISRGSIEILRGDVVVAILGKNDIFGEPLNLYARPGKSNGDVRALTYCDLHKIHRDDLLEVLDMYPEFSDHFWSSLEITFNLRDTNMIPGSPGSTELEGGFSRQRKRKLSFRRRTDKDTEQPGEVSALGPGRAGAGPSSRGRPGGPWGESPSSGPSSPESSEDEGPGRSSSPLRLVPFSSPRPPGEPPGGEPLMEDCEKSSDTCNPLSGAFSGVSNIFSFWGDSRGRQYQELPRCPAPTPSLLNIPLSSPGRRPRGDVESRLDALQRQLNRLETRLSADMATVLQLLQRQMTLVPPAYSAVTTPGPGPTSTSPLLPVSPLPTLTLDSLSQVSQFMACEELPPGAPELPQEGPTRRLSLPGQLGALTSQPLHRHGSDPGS

B1: recombinant Phα1β (peptide)
chain: MACIPRGEICTDDCECCGCDNQCYCPPGSSLGIFKCSCAHANKYFCNRKKEKCKKA
For the molecule B1, the IC50 of inhibition of hERG channel activity, thallium flux (FLIPR Potassium Assay) in HEK293-hERG cells was above 900 pmol and the percent inhibition of hERG channel activity, thallium flux (FLIPR Potassium Assay) in HEK293-hERG cells, Phα1β 56-900 pM for 30 minutes; highest value at 900 pM amounted to 13.6%.
